Data taken from publication PMC6078178 (Nature, 2017).

Target: T1, Tfa1 (TFIIE subunit) (S. cerevisiae, UniProt P36100 1-482)
T1 sequence (looked up): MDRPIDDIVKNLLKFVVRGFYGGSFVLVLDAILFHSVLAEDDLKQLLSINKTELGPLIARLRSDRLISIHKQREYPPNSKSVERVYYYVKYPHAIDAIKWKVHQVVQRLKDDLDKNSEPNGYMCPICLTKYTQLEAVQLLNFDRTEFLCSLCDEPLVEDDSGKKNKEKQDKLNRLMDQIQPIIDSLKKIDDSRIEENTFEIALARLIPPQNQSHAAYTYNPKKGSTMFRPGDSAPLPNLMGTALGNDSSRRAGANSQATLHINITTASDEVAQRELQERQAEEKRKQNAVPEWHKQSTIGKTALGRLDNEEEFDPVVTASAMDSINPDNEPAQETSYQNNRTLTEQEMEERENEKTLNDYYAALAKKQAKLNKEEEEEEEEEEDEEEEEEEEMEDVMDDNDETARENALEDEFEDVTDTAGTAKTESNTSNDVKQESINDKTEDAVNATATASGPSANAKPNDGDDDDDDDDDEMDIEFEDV
Assay: cross-linking

B1: Ssl1 (natural protein, S. cerevisiae, UniProt Q04673 1-461, looked up)
chain: MAPVVISESEEDEDRVAITRRTKRQVHFDGEGDDRVDQQQQQHSSSHRDRDKHVQRKKKKRLSNRNLQGSNGGYAWEDEIKRSWDLVKVDDEGDMASLVASIVEARKKRTAKKNITPYQRGIIRSLILTLDCSEAMLEKDLRPNRHAMIIQYAIDFVHEFFDQNPISQMGIIIMRNGLAQLVSQVSGNPQDHIDALKSIRKQEPKGNPSLQNALEMARGLLLPVPAHCTREVLIVFGSLSTTDPGDIHQTIDSLVSEKIRVKVLGLSAQVAICKELCKATNYGDESFYKILLDETHLKELFNEAVTPLPVNKINKGFTLVKMGFPTRIFEDTPTFCSCHSKLVYGGYFCPNCHSKVCSLPTVCPCCDLMLILSTHLARSYHHLMPLKTFAEVPTTEKFRSEDCFSCQSRFPILKNHKNGKLLTSSRYRCEDCKQEFCVDCDVFIHEILHNCPGCESKPVIT
B1: binds.
